The source of these data is patent US20090227489A1 (UNIVERSITY OF SOUTH FLORIDA A FLORIDA, published 2009).

The data set deals with the molecule itself. In words: EMSA supershift, hSIE probe, nuclear extracts of Stat3β-transfected B16 cells. The source says:
EGF-induced Stat3 binding activity in NIH3T3 (lane 4) was used as a positive control. By supershift analysis with antibody that recognizes Stat3 but not Stat3β or antibody that recognizes Stat3β but not Stat3, it was shown that there were Stat3-Stat3 homodimers in mock-transfected B16 cells and empty vector-transfected B16 cells. Overexpression of Stat3β in Stat3β-transfected B16 cells results in mostly Stat3β-Stat3β homodimer formation.
In general terms: In EMSA bound probe runs differently from free probe, usually more slowly.

B1: Stat3β, dominant-negative Stat3 variant (ectopic, from pIRES-Stat3β) (other)
chain: AQWNQLQQLDTRYLEQLHQLYSDSFPMELRQFLAPWIESQDWAYAASKESHATLVFHNLLGEIDQQYSRFLQESNVLYQHNLRRIKQFLQSRYLEKPMEIARIVARCLWEESRLLQTAATAAQQGGQANHPTAAVVTEKQQMLEQHLQDVRKRVQDLEQKMKVVENLQDDFDFNYKTLKSQGDMQDLNGNNQSVTRQKMQQLEQMLTALDQMRRSIVSELAGLLSAMEYVQKTLTDEELADWKRRQQIACIGGPPNICLDRLENWITSLAESQLQTRQQIKKLEELQQKVSYKGDPIVQHRPMLEERIVELFRNLMKSAFVVERQPCMPMHPDRPLVIKTGVQFTTKVRLLVKFPELNYQLKIKVCIDKDSGDVAALRGSRKFNILGTNTKVMNMEESNNGSLSAEFKHLTLREQRCGNGGRANCDASLIVTEELHLITFETEVYHQGLKIDLETHSLPVVVISNICQMPNAWASILWYNMLTNNPKNVNFFTKPPIGTWDQVAEVLSWQFSSTTKRGLSIEQLTTLAEKLLGPGVNYSGCQITWAKFCKENMAGKGFSFWVWLDNIIDLVKKYILALWNEGYIMGFISKERERAILSTKPPGTFLLRFSESSKEGGVTFTWVEKDISGKTQIQSVEPYTKQQLNNMSFAEIIMGYKIMDATNILVSPLVYLYPDIPKEEAFGKYCRPESQEHPEADPGAAPYLKTKFICVTFIDAVWK
notes: ID; NO:3; NO:4'; It was expressed in B16 cells from pIRES-Stat3β and assayed in nuclear extracts; also called Stat3beta; ST3β
Take B1: the binding result is recorded as “binds”.
